Test results taken from PMC12445699.

Legend:
[1] = molecular target: H3.3-nucleosome (mono-nucleosome with the variant H3.3) (UniProt P84243)
[2] = molecular target: H3-nucleosome (mono-nucleosome with canonical H3) (UniProt P84233)
[3] = molecular target: H3.3S31ph-nucleosome (H3.3-nucleosome with Ser31 phosphorylation) (UniProt P84243)
H3.3S31A-nucleosome = H3.3S31A-nucleosome (UniProt P84243)
H3.3S31E-nucleosome = H3.3S31E-nucleosome (UniProt P84243)

## FACT (Facilitates Chromatin Transcription) complex (from UniProt Q9Y5B9 1-1047; Q08945 1-709)
[1]
  rupture force at which the nucleosome is completely disrupted in the presence of FACT (magnetic tweezers): 24.5 pN
[2]
  rupture force at which the nucleosome is completely disrupted in the presence of FACT (magnetic tweezers): 6.7 pN
[3]
  force of disruption in the first stretching cycle in the presence of FACT; no transitions in later cycles (magnetic tweezers): 13.9 pN
H3.3S31A-nucleosome
  rupture force at which the nucleosome is completely disrupted in the presence of FACT (magnetic tweezers): 25.4 pN
H3.3S31E-nucleosome
  rupture force at which the nucleosome is completely disrupted in the presence of FACT (magnetic tweezers): 25.4 pN
